Data from article PMC6561319, “Proteomic Profiling, Transcription Factor Modeling, and Genomics of Evolved Tolerant Strains Elucidate Mechanisms of Vanillin Toxicity in Escherichia coli” (mSystems, 2019).

Legend:
[1] = substrate: COc1cc(C=O)ccc1O; experiment: purified protein; format: biochemical, Escherichia coli; conditions: 0.1 mM NADPH, 100 mM phosphate pH 7.4, 37°C
[2] = substrate: O=C(O)CC(=O)C(=O)O; experiment: purified protein; format: biochemical, Escherichia coli; conditions: 67 μM acetyl-CoA (fixed), 0.2 mM DTNB, 100 mM Tris-HCl pH 8, 37°C

Protein	Km [1]	kcat [1]	Km [2]	Vmax [2]	kcat [2]	kcat/Km [2]
DkgA (Escherichia coli K-12) (protein) ANPTVIKLQDGNVMPQLGLGVWQASNEEVITAIQKALEVGYRSIDTAAAYKNEEGVGKALKNASVNREELFITTKLWNDDHKRPREALLDSLKKLQLDYIDLYLMHWPVPAIDHYVEAWKGMIELQKEGLIKSIGVCNFQIHHLQRLIDETGVTPVINQIELHPLMQQRQLHAWNATHKIQTESWSPLAQGGKGVFDQKVIRDLADKYGKTPAQIVIRWHLDSGLVVIPKSVTPSRIAENFDVWDFRLDKDELGEIAKLDQGKRLGPDPDQFGG	200 ± 80 µM	0.0467 s⁻¹				
GltA (citrate synthase) (Escherichia coli K-12) (protein, hexamer) MADTKAKLTLNGDTAVELDVLKGTLGQDVIDIRTLGSKGVFTFDPGFTSTASCESKITFIDGDEGILLHRGFPIDQLATDSNYLEVCYILLNGEKPTQEQYDEFKTTVTRHTMIHEQITRLFHAFRRDSHPMAVMCGITGALAAFYHDSLDVNNPRHREIAAFRLLSKMPTMAAMCYKYSIGQPFVYPRNDLSYAGNFLNMMFSTPCEPYEVNPILERAMDRILILHADHEQNASTSTVRTAGSSGANPFACIAAGIASLWGPAHGGANEAALKMLEEISSVKHIPEFVRRAKDKNDSFRLMGFGHRVYKNYDPRATVMRETCHEVLKELGTKDDLLEVAMELENIALNDPYFIEKKLYPNVDFYSGIILKAMGIPSSMFTVIFAMARTVGWIAHWSEMHSDGMKIARPRQLYTGYEKRDFKSDIKR			154 ± 25 µM	4.8 µmol/min/mg	3.87 ± 0.233 s⁻¹	25100 ± 1470 M⁻¹ s⁻¹
YqhD (Escherichia coli K-12) (protein) MNNFNLHTPTRILFGKGAIAGLREQIPHDARVLITYGGGSVKKTGVLDQVLDALKGMDVLEFGGIEPNPAYETLMNAVKLVREQKVTFLLAVGGGSVLDGTKFIAAAANYPENIDPWHILQTGGKEIKSAIPMGCVLTLPATGSESNAGAVISRKTTGDKQAFHSAHVQPVFAVLDPVYTYTLPPRQVANGVVDAFVHTVEQYVTKPVDAKIQDRFAEGILLTLIEDGPKALKEPENYDVRANVMWAATQALNGLIGAGVPQDWATHMLGHELTAMHGLDHAQTLAIVLPALWNEKRDTKRAKLLQYAERVWNITEGSDDERIDAAIAATRNFFEQLGVPTHLSDYGLDGSSIPALLKKLEEHGMTQLGENHDITLDVSRRIYEAAR	270 ± 40 µM	0.103 s⁻¹				
